Experimental data taken from patent publication US20180194859A1.

Molecular target: Recombinant EGFR/His (UniProt P00533)
Assay: SPR (Biacore T200), antibody captured on anti-human Fc, EGFR/His as analyte, 1:1 fit

Kd: 2.8 nM
Substance: αHER2×αEGFR LDAb (trastuzumab IgG2 azide clicked to cetuximab IgG2 DBCO) (bispecific antibody)
